Experimental data published in the supplement of paper PMC9170038.

Tested on: MS2 coat protein
Test: apparent KD of MS2 coat protein; designed switch direction (-1 OFF switch, 1 ON switch): 1; higher = weaker reporter binding
How it was run: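 On Illumina chips, designed RNA switches with common flanks were made by stalled E. coli RNA polymerase. Titrations with SNAP-549-labelled MS2 coat protein, doubling from 0.7 or 1.5 nM to 3 µM, were done with no input, with 200 uM small-molecule ligand, or with an oligonucleotide input. Apparent KD is the median per design over clusters, from curve fits of normalised cluster fluorescence.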

[1] = input ligand: microRNA oligo, concentration not stated
[2] = Eterna round: R95, input ligand: FMN 200 uM
[3] = Eterna round: R95, input ligand: microRNA oligo, concentration not stated
[4] = Eterna round: R95, input ligand: none

Row | Sequence | apparent KD of MS2 coat protein (input ligand: FMN 200 uM) [nM] | apparent KD of MS2 coat protein [1] [nM] | apparent KD of MS2 coat protein (input ligand: none) [nM] | apparent KD of MS2 coat protein [2] [nM] | apparent KD of MS2 coat protein [3] [nM] | apparent KD of MS2 coat protein [4] [nM]
1 | GCCAUCGCAUGAGGAUAUGGCACCGAAACGGUGCCAGAAGGCAUGUCGAAAGACAUGAGGAUCACCCAUGUAGUAUAGAUGGCA [Mat - Same State NG 1 - JL mod - D93] (Eterna round: R96, puzzle: Same State NG 1) | 222 | 228 | 900 | – | – | –
2 | GAAAGGCCUACAGGAUAUACCACAGUCUUGUCGGUAGAAGGGUGGGACAUGAGGAUCACCCAUGUACACUCCCAGAUGGGAGUG [Ergeesis] (Eterna round: R96, puzzle: Same State NG 1) | 767 | 135 | 476 | – | – | –
3 | AGCUAUUAAUCAGGAUAUGGUCACAUGAGGAUCACCCAUGUAUAGAUGAUUGAAUGUGGUCUACACUAGAAGGGAUUGCUAACA [SameState NG2 #58] (Eterna round: R96, puzzle: Same State NG 2) | 167 | 96.1 | 150 | – | – | –
4 | GGUCCAGCCUGAGCUGGACCGAAGCAUGUACAUGAGGAUCACCCAUGUCAUGUACAGGCUUUUUGCUCGUCUUAUUG [JL-shm-2.12 JL Mod] (puzzle: Sensor for hsa-mir-208a) | – | – | – | 685 | 15.7 | 694
5 | UGCCUGUCCGAAGGAUAUCUCAGCGAUCUUUUGGGAGAAGGUCGGAUGCAACAUGAGGAUCACCCAUGUGUAUAUAUCGCUGAC [Eternabot solution 48] (Eterna round: R96, puzzle: Same State NG 1) | 17.7 | 13.9 | 20.1 | – | – | –
6 | GCUCGGCUGAUGGCCCACAUGAGGAUCACCCAUGUGACUGGGCAGGAUAUCUAGAUUCAGGAUGUAGAGAAGGGCCUGCCGAGC [SameState NG3 #40] (Eterna round: R96, puzzle: Same State NG 3) | 331 | 77.3 | 188 | – | – | –
7 | GUGCUCGUGUGAGGAUAUGCUUCCGGGUCGGCUGCAGAAGGUACUAUUAUACAUGAGGAUCACCCAUGUCGCUUUUCUCCGGUG [salish99_SSNG1_r04_917] (Eterna round: R96, puzzle: Same State NG 1) | 48.2 | 29.2 | 38.4 | – | – | –
8 | GGAGCCGGCACUGAGGAUAUUCAUAAUAAAACAUGAGGAUCACCCAUGUAGGCCAGAAGGCCUUGGGAGAAGGCAGGUCGGCUCA [Mat - Same State 2 - Mod of UCT - D66] (puzzle: Same State 2) | – | – | – | 18.3 | 153 | 217
9 | CAGUGCUGUUGAGAGGAUAUGCGGCGACGGACAUGAGGAUCACCCAUGUUAGCGACAGCGUUGCGGCAGAAGGCUCUGCCCGCUG [Soteed Omei mod 50] (puzzle: Same State 2) | – | – | – | – | 15.3 | –
10 | AGCCUGAGUCGAGGAUAUUAUGGAUCCUUUAAUACAUGAGGAUCACCCAUGUAAUUAAUUAUACAUGAGAAGGCGACUCAGGCA [SSNG2/11-A1] (Eterna round: R96, puzzle: Same State NG 2) | 10.9 | 30.4 | 129 | – | – | –
11 | GGUAUGGACACAGGAUAUGCUUACGAAACGUAAGCAGAAGGGUGAACAUGAGGAUCACCCAUGUACGUACCAGGGCGUGAGCCC [JL SSNG1 1.76] (Eterna round: R96, puzzle: Same State NG 1) | 440 | 157 | 92.4 | – | – | –
12 | UCUUGGUUUUUGCUCGUUUUUUGUGUUGAACAUGAGGAUCACCCAUGUAUUGUACAGUCCAAUUUGAUAAUGGUCCG [JMF 54] (puzzle: Sensor for hsa-mir-208a) | – | – | – | 37.6 | 32.3 | 44
13 | AAGAAAGACGCAGGAUAUCAGUGCAGACCGCACUGAGAAGGGUGAGACAUGAGGAUCACCCAUGUAACACGACAAAACGUCGUG [Anritiat] (Eterna round: R96, puzzle: Same State NG 1) | 111 | 118 | 13.9 | – | – | –
14 | GAGCCAGUCCGAGGAUAUUCAUAUACAUGAGGAUCACCCAUGUAGGCUCAGAAAAGAGAGCCUUGGGAGAAGGCGGACUGGCUC [Xeonanisa<<4] (Eterna round: R96, puzzle: Same State NG 2) | 8.38 | 27.3 | 50.8 | – | – | –
15 | CUAACAACAAGUUGCAGUGUUCGUCUUUAACAUGAGGAUCACCCAUGUAAUAGCCCGGUAGAAGCGCUCGGGCCACC [Anaesrain] (puzzle: Sensor for hsa-mir-208a) | – | – | – | 32.8 | 38.1 | 36.3
16 | GAGAGAGGAAGCGAGGAUAUCGUGUUAGGUACAUGAGGAUCACCCAUGUUGUAGGUAGAGGUAGGCGAGAAGGCGCAGGAGAGGU [JR_SS2_Sub095] (puzzle: Same State 2) | – | – | – | 26.7 | 26.4 | 32.2
17 | UUAAUGAUGAUAGGAUAUACAUGAGGAAUCCUCGUAGAAGGAUCAUGACAUGAGGAUCACCCAUGUAACGCUCAGAAGAGCGUA [Mat - Same State NG 1 - JL mod - D42] (Eterna round: R96, puzzle: Same State NG 1) | 205 | 37 | 78.3 | – | – | –
18 | AUUAAACAUGAGGAUCACCCAUGUCAACAAAGUCGAGGAUAUGGGCAAAUAAAAUAUGAACCAGAAGGCGAAUAAU [salish99_ss1_r3_064] (Eterna round: R96, puzzle: Same State 1) | 32.9 | 208 | 263 | – | – | –
19 | UCUAGACAUGAGGAUCACCCAUGUCGAUAUGACACAGGAUAUCGGUACUCAUAGAGUACGCGAGAAGGGUGACUUC [Same State 1 - Mod of Vinnie Gere v.3] (puzzle: Same State 1) | – | – | – | 112 | 115 | 166
20 | GUGGUCAGACAUGAGGAUCACCCAUGUGGAAUAAAUAAGGACUAGGAUAUGUAAUAUAGGAUAUAACAGAAGGAGUGGUUGGUG (Eterna round: R96, puzzle: Same State NG 3) | 66.8 | 42.1 | 60.2 | – | – | –
21 | GUAGCAUACCGAGGAUAUUCAUAAUACAUGAGGAUCACCCAUGUUAAUAAUAGGCGAAAGCCUUGGGAGAAGGCGGAAUGCUAC [Xeonanis - 20 Mod69] (Eterna round: R96, puzzle: Same State NG 2) | 11.4 | 9.05 | 16.2 | – | – | –
22 | UAUCGUUUGAUAGGAUAUCGCUAUACAUGAGGAUCACCCAUGUUUACCACGCUGGUUUUUCAUACCGAGAAGGAUUCUGAUGAA [salish99_SSNG02_r04_004] (Eterna round: R96, puzzle: Same State NG 2) | 29 | 19.6 | 32.5 | – | – | –
23 | UAUGACUUACAAGGAUAUUAAUGACAUGAGGAUCACCCAUGUGGCUGUGUGUGUUAGAUAAGCUUUAAGAAGGUGUGCGUGUCU [JR_SSNG2_Sub096] (Eterna round: R96, puzzle: Same State NG 2) | 361 | 288 | 386 | – | – | –
24 | AACCCGAAGGGAGGAUAUGGCACCUUAUUGGUGCCAGAAGGUCCUCACAUGAGGAUCACCCAUGUGGGCCGGUCGAAAGACCGG [Fiskers NG1ss - 12] (Eterna round: R96, puzzle: Same State NG 1) | 532 | 407 | 500 | – | – | –
25 | AAUUAUUAACAUGAGGAUCACCCAUGUAUUUUUUGCUCGUCAUGUAUUAUUAUUAUUAUUAUUAUUAUUAUUAUUAA [my first RNA] (puzzle: Sensor for hsa-mir-208a version 2) | – | – | – | 26.8 | 17.1 | 37.8
26 | ACAUGAGAGUGAGGAUAUAUUGUACCUACAUGUGACAUGAGGAUCACCCAUGUGGUAAGUAUGACAUAGAAGGCACAGAUAUGU [Equivalance 80 - Jieux - Same State NG 2] (Eterna round: R96, puzzle: Same State NG 2) | 35.6 | 45.2 | 70.9 | – | – | –
27 | AAGAAAUCCGCAGGAUAUCCUAAGCCGGGCUUAGGAGAAGGGUGGCCACAUGAGGAUCACCCAUGUAAAGGCUGAAUCACAGCC [Disois] (Eterna round: R96, puzzle: Same State NG 1) | 662 | 268 | 491 | – | – | –
28 | UUAAUGAUGAAAGGAUAUACAUGAGGAAUUCUCGUAGAAGGUUCAUGACAUGAGGAUCACCCAUGUAUCGCUCCGUAGAGCGUA [JL SSNG1 1.13] (Eterna round: R96, puzzle: Same State NG 1) | 713 | 38.4 | 82.6 | – | – | –
29 | AUUAUGUAUGCAGGAUAUGAUUAACAUGAGGAUCACCCAUGUGGUGUUGUGAGUAAGGAGAGUGAUCAGAAGGGCAUUUUUUUU [JMF's solution 64] (Eterna round: R96, puzzle: Same State NG 2) | 555 | 333 | 381 | – | – | –
30 | CUUGAUACACAUGAGGAUCACCCAUGUAUCAAGCUUUUUGCUCGUGUUAUUAUUUCCUUUAUUAGGAAUAUUAGGAA [rhiju-sequester-tail] (puzzle: Sensor for hsa-mir-208a version 2) | – | – | – | 24.9 | 14.4 | 23.7
